Biological target: T1, RNase H (UniProt P0A7Y4)
T1 sequence: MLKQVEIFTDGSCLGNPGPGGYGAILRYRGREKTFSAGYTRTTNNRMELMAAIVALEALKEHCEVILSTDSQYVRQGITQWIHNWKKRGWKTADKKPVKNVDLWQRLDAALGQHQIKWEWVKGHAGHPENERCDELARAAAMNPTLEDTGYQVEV
Test: flow

Row | Sequence | binding (fluorescence units) (no RNA, equivalent to bead background of 44 units) | binding (fluorescence units) (bead fluorescence 4x over no-RNA control, released to 45 units on adding MgCl2)
1 | AAGCCAGCTGCTTCCATTGGTGGGTCGTTTTTGCTGTCACCAGCAACATTGCCTCGTCTA [EF1a capture oligo without RNA] | 47 | –
2 | AAGCCAGCTGCTTCCATTGGTGGGTCGTTTTTGCTGTCACCAGCAACATTGCCTCGTCTA [EF1a capture oligo:EF1a RNA hybrid] | – | 196

Reference: patent US20130231261
